Results from paper PMC8789516, “Polyphenol oxidase and enzymatic browning in apricot (Prunus armeniaca L.): Effect on phenolic composition and deduction of main substrates” (Current Research in Food Science, 2022).

B1: L-PaPPO (recombinant latent apricot polyphenol oxidase) (Prunus armeniaca; A376C/R416N/S149R/V417C) (protein)
chain: DPIAPPDLTTCKPAEITPGGSETVPCCPPVTTKIKTFKPDLSIPLRTRPAAHQVTDEYLAKFKKAQAAMRALPDDDPRSMVQQAKVHCAYCNGAYPQVGFTDNDIQVHFSWLFFPFHRMYLYFYERILGKLIDDPTFALPYWNWDSPVGFPIPDIYTDTSSPLYDQYRNADHQPPVLVDLSYGGKDDDVDEQTRIDENLAIMYRQMVSGAKTPDLFFGHAYRAGNLNTGKYPGTIENMPHNNIHIWVGDPSQTHQEDMGNFYSAGRDPLFYAHHCNVDRMWNIWKTLGGKRKDITDTDWLDAEFLFYDENAELVNCKVRDSLEPEKQLRYNYEPVSLPWLFTKPTARKTKNKTKAKVAATQLTSKFPATLVEVTTVEVARPKPRKRSKKEKVDEEELLIIKDIEFEGTEAVKFDVFINDDAESLSRRDKSEFAGSFVHVPQGKTTKAKTKTNLKLGITDLLEDLGAEDDSSVLVTLVPRVSNSPITIGGFKIEYSS
notes: latent form Asp102-Ser597 (active plus C-terminal domain), signal peptide removed; Gly-Pro-Met left after HRV 3C cleavage of GST; E. coli SHuffle T7; intron removed

Key:
Conditions in all cases: pH 7.0, 50 mM Tris-HCl, 25 °C, 2 mM SDS as activator of the latent enzyme
[1] = biological target: T1, L-PaPPO (recombinant latent apricot polyphenol oxidase) (Prunus armeniaca, UniProt O81103, S149R/A376C/R416N/V417C)
T1 construct: gene PPO

[2] = substrate: NCCc1ccc(O)c(O)c1; assay: purified protein; format: biochemical, Prunus armeniaca
[3] = substrate: NCCc1ccc(O)cc1; assay: purified protein; format: biochemical, Prunus armeniaca

Row | Molecule | Km [1] [µM] | Km [2] [µM] | kcat [2] [s⁻¹] | kcat/Km [2] [M⁻¹ s⁻¹] | Km [3] [µM] | kcat [3] [s⁻¹] | kcat/Km [3] [M⁻¹ s⁻¹]
1 | O=C(/C=C/c1ccc(O)c(O)c1)O[C@@H]1C[C@@](O)(C(=O)O)C[C@@H](O)[C@@H]1O [Neochlorogenic acid] | 1470 ± 290 |  |  |  |  |  | 
2 | O=C(/C=C/c1ccc(O)c(O)c1)O[C@@H]1C[C@](O)(C(=O)O)C[C@@H](O)[C@H]1O [Chlorogenic acid] | 1520 ± 100 |  |  |  |  |  | 
3 | B1 |  | 1610 ± 160 | 162 ± 3.3 | 99800 ± 2900 | 4480 ± 360 | 1.42 ± 0.13 | 318 ± 29
